According to US20240033354A1 (University of California, published 2024):

Columns and labels:
[1] = biological target: T1, TcdB1 holotoxin (recombinant full-length TcdB1, VPI10463 strain, expressed in Bacillus megaterium) (Clostridium difficile, VPI10463 strain, UniProt P18177 1-2366); test: two-step pull-down, first step (FIG. 15C)
T1 construct: also called TcdB1 (1-2366)-holotoxin

[2] = biological target: T1, TcdB1 holotoxin (recombinant …)
[3] = biological target: TcdB2 (recombinant full-length, R20292 strain [sic], expressed in Bacillus megaterium) (Clostridium difficile, R20291 strain …, UniProt P18177 1-2366)

B1: CSPG4^mini (CSPG4 residues 30-764) (receptor)
chain: ASFFGENHLEVPVATALTDIDLQLQFSTSQPEALLLLAAGPADHLLLQLYSGRLQVRLVLGQEELRLQTPAETLLSDSIPHTVVLTVVEGWATLSVDGFLNASSAVPGAPLEVPYGLFVGGTGTLGLPYLRGTSRPLRGCLHAATLNGRSLLRPLTPDVHEGCAEEFSASDDVALGFSGPHSLAAFPAWGTQDEGTLEFTLTTQSRQAPLAFQAGGRRGDFIYVDIFEGHLRAVVEKGQGTVLLHNSVPVADGQPHEVSVHINAHRLEISVDQYPTHTSNRGVLSYLEPRGSLLLGGLDAEASRHLQEHRLGLTPEATNASLLGCMEDLSVNGQRRGLREALLTRNMAAGCRLEEEEYEDDAYGHYEAFSTLAPEAWPAMELPEPCVPEPGLPPVFANFTQLLTISPLVVAEGGTAWLEWRHVQPTLDLMEAELRKSQVLFSVTRGARHGELELDIPGAQARKMFTLLDVVNRKARFIHDGSEDTSDQLVLEVSVTARVPMPSCLRRGQTYLLPIQVNPVNDPPHIIFPHGSLMVILEHTQKPLGPEVFQAYDPDSACEGLTFQVLGTSSGLPVERRDQPGEPATEFSCRELEAGSLVYVHRGGPAQDLTFRVSDGLQASPPATLKVVAIRPAIQIHRSTGLRLAQGSAMPILPANLSVETNAVGQDVSVLFRVTGALQFGELQKQGAGGVEGAEWWATQAFHQRDVEQGRVRYLSTDPQHHAYDTVENLALEVQ
binding result [1]: binds

B2: Repeat1-Fc (CSPG4 Repeat1, residues 410-551, fused to the N-terminus of the Fc fragment of a human IgG1) (Fc fusion)
chain: ELPEPCVPEPGLPPVFANFTQLLTISPLVVAEGGTAWLEWRHVQPTLDLMEAELRKSQVLFSVTRGARHGELELDIPGAQARKMFTLLDVVNRKARFIHDGSEDTSDQLVLEVSVTARVPMPSCLRRGQTYLLPIQVNPVND
Kd [2]: ~15.2 nM | koff [2]: ~0.000108 s⁻¹ | kon [2]: ~7060 M⁻¹ s⁻¹ | Kd [3]: ~5.4 nM | koff [3]: ~4.63e-05 s⁻¹ | kon [3]: ~8340 M⁻¹ s⁻¹
